Data reported in PMC11743793, “Structural insights into human topoisomerase 3β DNA and RNA catalysis and nucleic acid gate dynamics” (Nature Communications, 2025).
Values belong to the binder of their own block, whether it stands above or below them.

Columns and labels:
[1] = target: T1, human TOP3Bcore-Y336F (1-612 aa) (human, UniProt O95985 1-612, Y336F); assay: cryo-EM structure; cTOP3B heterodimer (wild type, Y336F or K10M; 3 mg/ml) mixed with equimolar gapped 43-mer DNA or RNA; 25 mM Bis-Tris pH 6.8, 0.1 M KCl, 0.5 mM MnCl2 (5 mM for the rejoining complexes), 0.1% octyl β-D-glucopyranoside, 4 mM DTT, 2% glycerol; RT; details: both partners purified
T1 construct: DNA topoisomerase 3-beta (TOP3B), human, core, residues 1-612, catalytic tyrosine changed to phenylalanine; also called TOP3B chain of cTOP3B-Y336F; not shown: His8, N-terminal, cleaved; MBP, N-terminal, cleaved
T1 sequence (looked up): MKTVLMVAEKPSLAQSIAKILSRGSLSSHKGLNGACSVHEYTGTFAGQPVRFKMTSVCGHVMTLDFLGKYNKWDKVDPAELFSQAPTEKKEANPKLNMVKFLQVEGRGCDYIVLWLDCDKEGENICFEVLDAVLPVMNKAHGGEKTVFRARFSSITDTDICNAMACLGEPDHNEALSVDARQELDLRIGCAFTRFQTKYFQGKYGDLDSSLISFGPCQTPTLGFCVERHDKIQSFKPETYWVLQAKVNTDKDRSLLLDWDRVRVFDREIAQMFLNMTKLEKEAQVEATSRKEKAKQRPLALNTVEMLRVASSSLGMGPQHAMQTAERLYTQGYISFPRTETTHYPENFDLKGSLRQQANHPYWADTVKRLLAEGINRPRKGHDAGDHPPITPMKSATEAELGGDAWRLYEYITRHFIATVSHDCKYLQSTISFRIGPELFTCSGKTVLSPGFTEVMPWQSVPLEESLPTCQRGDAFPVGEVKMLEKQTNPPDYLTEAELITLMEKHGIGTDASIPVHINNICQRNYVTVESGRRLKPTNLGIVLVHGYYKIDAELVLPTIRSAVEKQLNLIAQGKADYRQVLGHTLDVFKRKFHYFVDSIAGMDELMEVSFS

[2] = target: T2, human TOP3Bcore-K10M (1-612 aa) (human, UniProt O95985 1-612, K10M); assay: as above; details: both partners purified
T2 construct: DNA topoisomerase 3-beta (TOP3B), human, core, residues 1-612, rejoining-deficient mutant; In the rejoining complexes Y336 carries the tyrosyl-phosphodiester linkage to the cleaved DNA/RNA (PTR336); also called TOP3B chain of cTOP3B-K10M; not shown: His8, N-terminal, cleaved; MBP, N-terminal, cleaved
T2 sequence (looked up): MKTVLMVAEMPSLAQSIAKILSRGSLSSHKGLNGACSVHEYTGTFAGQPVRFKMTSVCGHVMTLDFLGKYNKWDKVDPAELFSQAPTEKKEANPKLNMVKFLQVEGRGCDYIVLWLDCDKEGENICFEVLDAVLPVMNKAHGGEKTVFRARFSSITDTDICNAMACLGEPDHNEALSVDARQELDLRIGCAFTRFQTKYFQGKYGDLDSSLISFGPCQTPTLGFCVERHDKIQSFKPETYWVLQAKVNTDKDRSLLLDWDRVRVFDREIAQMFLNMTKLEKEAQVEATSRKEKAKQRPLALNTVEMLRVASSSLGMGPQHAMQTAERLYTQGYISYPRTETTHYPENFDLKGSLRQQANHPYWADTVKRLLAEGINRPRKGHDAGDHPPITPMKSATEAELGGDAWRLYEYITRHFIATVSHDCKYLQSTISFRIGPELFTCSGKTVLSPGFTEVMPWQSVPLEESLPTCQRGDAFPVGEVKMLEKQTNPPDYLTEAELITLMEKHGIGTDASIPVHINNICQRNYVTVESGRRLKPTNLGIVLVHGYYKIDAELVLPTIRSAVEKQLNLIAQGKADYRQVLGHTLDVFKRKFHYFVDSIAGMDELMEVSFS

[3] = target: the molecule itself; assay: cryo-EM structure; cTOP3B mixed with a DNA bubble (11-nt strand opposite 13 unmatched nucleotides) at about 1:1; species with two cTOP3B on one DNA bubble, ~4.3 Å map from 63,000 particles
[4] = target: T3, human full-length TOP3B(Y336F) (human, UniProt O95985 1-862, Y336F); assay: cryo-EM structure; full-length TOP3B(Y336F)-TDRD3(1-190 aa) with a DNA mismatch bubble or a short R-loop substrate; cryo-EM volumes; details: both partners purified
T3 construct: DNA topoisomerase 3-beta (TOP3B), human, full length; residues 1-717 resolved in the apo map; not shown: His8, N-terminal, cleaved; MBP, N-terminal, cleaved
T3 sequence (looked up): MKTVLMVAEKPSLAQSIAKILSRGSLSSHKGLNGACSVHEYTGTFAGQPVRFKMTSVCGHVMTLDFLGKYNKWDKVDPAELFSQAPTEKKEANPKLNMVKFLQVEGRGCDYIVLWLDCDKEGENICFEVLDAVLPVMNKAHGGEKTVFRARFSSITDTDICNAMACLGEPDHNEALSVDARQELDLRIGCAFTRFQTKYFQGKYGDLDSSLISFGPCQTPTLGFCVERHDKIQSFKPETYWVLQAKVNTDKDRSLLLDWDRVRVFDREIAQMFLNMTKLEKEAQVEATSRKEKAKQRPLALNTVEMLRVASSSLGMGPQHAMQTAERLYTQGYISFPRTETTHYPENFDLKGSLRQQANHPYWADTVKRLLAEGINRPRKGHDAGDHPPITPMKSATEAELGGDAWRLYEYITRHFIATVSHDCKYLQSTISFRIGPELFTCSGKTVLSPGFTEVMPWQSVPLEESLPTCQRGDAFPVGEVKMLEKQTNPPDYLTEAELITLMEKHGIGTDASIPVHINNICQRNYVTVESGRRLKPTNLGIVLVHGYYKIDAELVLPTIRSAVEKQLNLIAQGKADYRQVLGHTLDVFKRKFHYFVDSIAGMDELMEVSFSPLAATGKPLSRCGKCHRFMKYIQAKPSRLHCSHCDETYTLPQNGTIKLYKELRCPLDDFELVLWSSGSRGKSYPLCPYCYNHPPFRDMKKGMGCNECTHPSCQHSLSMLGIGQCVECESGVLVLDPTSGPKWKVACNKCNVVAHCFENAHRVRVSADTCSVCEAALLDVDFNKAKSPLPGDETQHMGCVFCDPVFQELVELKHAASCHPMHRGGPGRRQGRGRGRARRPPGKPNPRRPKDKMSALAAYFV

- binding result [1]: binds
- binding result [2]: binds
B1: N-terminal fragment of human TDRD3 (1-171 aa) containing its DUF domain and OB-fold (domain or fragment, UniProt Q9H7E2 1-171, looked up)
chain: MLRLQMTDGHISCTAVEFSYMSKISLNTPPGTKVKLSGIVDIKNGFLLLNDSNTTVLGGEVEHLIEKWELQRSLSKHNRSNIGTEGGPPPFVPFGQKCVSHVQVDSRELDRRKTLQVTMPVKPTNDNDEFEKQRTAAIAEVAKSKETKTFGGGGGGARSNLNMNAAGNRNR
notes: Tudor domain-containing protein 3 (TDRD3), human, residues 1-171 (DUF domain and OB-fold); also called TDRD3 chain of cTOP3B; OB (in TOP3Bcore-OB); not shown: His8, N-terminal, cleaved; MBP, N-terminal, cleaved

B2: human TOP3Bcore (1-612 aa), wild type (domain or fragment, UniProt O95985 1-612, looked up)
chain: MKTVLMVAEKPSLAQSIAKILSRGSLSSHKGLNGACSVHEYTGTFAGQPVRFKMTSVCGHVMTLDFLGKYNKWDKVDPAELFSQAPTEKKEANPKLNMVKFLQVEGRGCDYIVLWLDCDKEGENICFEVLDAVLPVMNKAHGGEKTVFRARFSSITDTDICNAMACLGEPDHNEALSVDARQELDLRIGCAFTRFQTKYFQGKYGDLDSSLISFGPCQTPTLGFCVERHDKIQSFKPETYWVLQAKVNTDKDRSLLLDWDRVRVFDREIAQMFLNMTKLEKEAQVEATSRKEKAKQRPLALNTVEMLRVASSSLGMGPQHAMQTAERLYTQGYISYPRTETTHYPENFDLKGSLRQQANHPYWADTVKRLLAEGINRPRKGHDAGDHPPITPMKSATEAELGGDAWRLYEYITRHFIATVSHDCKYLQSTISFRIGPELFTCSGKTVLSPGFTEVMPWQSVPLEESLPTCQRGDAFPVGEVKMLEKQTNPPDYLTEAELITLMEKHGIGTDASIPVHINNICQRNYVTVESGRRLKPTNLGIVLVHGYYKIDAELVLPTIRSAVEKQLNLIAQGKADYRQVLGHTLDVFKRKFHYFVDSIAGMDELMEVSFS
notes: DNA topoisomerase 3-beta (TOP3B), human, core, residues 1-612; In the DNA post-cleavage complex the catalytic Y336 is covalently linked to the DNA scissile phosphate (PTR336); Tags removed by PreScission Protease before SEC; also called hsTOP3Bcore(1-612AA); TOP3B chain of cTOP3B; not shown: His8, N-terminal, cleaved; MBP, N-terminal, cleaved
- binding result [3]: binds

- binding result [4]: binds
B3: human TDRD3(1-190 aa) (domain or fragment, UniProt Q9H7E2 1-190, looked up)
chain: MLRLQMTDGHISCTAVEFSYMSKISLNTPPGTKVKLSGIVDIKNGFLLLNDSNTTVLGGEVEHLIEKWELQRSLSKHNRSNIGTEGGPPPFVPFGQKCVSHVQVDSRELDRRKTLQVTMPVKPTNDNDEFEKQRTAAIAEVAKSKETKTFGGGGGGARSNLNMNAAGNRNREVLQKEKSTKSEGKHEGVY
notes: Tudor domain-containing protein 3 (TDRD3), human, residues 1-190; not shown: His8, N-terminal, cleaved; MBP, N-terminal, cleaved
